Experimental data as given in paper PMC5588548 (2017).

T1: ADAMTS-5 lacking the C-terminal thrombospondin domain (Homo sapiens, UniProt Q9UNA0)
T1 chain: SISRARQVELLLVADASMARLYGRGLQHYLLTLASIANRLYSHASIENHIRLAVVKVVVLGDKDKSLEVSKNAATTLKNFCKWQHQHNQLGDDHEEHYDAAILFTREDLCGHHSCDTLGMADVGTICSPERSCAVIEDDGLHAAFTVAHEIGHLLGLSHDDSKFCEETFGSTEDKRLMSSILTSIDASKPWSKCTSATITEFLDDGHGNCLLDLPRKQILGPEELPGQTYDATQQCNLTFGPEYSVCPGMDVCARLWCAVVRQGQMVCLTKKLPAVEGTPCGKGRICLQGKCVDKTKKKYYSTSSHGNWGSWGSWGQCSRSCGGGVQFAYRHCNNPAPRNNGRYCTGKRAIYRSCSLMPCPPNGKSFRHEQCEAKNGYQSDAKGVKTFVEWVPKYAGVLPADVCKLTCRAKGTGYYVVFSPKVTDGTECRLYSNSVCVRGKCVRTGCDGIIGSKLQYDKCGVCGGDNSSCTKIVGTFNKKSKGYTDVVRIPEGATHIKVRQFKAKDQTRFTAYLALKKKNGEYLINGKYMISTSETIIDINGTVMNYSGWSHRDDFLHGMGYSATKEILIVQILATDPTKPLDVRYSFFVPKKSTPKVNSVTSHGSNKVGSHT

T2: MMP-1 catalytic domain (Homo sapiens, UniProt P03956)
T2 chain: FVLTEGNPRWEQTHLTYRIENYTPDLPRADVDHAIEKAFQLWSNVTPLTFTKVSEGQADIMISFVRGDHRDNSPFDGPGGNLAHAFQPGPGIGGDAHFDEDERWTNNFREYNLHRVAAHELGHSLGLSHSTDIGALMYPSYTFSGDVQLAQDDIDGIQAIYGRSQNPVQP


Experiments:
Experiment in all cases: inhibition of fluorescent peptide substrate cleavage, tight binding equation
[1] = molecular target: T1, ADAMTS-5 lacking the C-terminal …
MMP-3 catalytic domain = MMP-3 catalytic domain (Homo sapiens, UniProt P08254)
MMP-1 catalytic domain = molecular target: T2, MMP-1 catalytic domain

MMP-3 catalytic domain, sequence (P08254 100-272): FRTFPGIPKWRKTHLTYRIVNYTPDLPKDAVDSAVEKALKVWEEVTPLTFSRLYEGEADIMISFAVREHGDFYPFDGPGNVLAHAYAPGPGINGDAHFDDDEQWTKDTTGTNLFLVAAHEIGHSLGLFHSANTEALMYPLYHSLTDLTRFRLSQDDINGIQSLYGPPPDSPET

| Binder | Ki [1] | Ki (MMP-3 catalytic domain) | Ki (MMP-1 catalytic domain) |
| --- | --- | --- | --- |
| TIMP-3 (protein, suramin (0.05 µg/ml)) CTCSPSHPQDAFCNSDIVIRAKVVGKKLVKEGPFGTLVYTIKQMKMYRGFTKMPHVQYIHTEASESLCGLKLEVNKYQYLLTGRVYDGKMYTGLCNFVERWDQLTLSQRKGLNYRYHLGCNCKIKSCYYLPCFVTSKNECLWTDMLSNFGYPGYQSKHYACIRQKGGYCSWYRGWAPPDKSIINATDP | 1.6 nM | 0.76 nM | 0.65 nM |
| TIMP-3 (protein) CTCSPSHPQDAFCNSDIVIRAKVVGKKLVKEGPFGTLVYTIKQMKMYRGFTKMPHVQYIHTEASESLCGLKLEVNKYQYLLTGRVYDGKMYTGLCNFVERWDQLTLSQRKGLNYRYHLGCNCKIKSCYYLPCFVTSKNECLWTDMLSNFGYPGYQSKHYACIRQKGGYCSWYRGWAPPDKSIINATDP | 2.03 nM | 1.14 nM | 0.66 nM |
